Each block holds one sequence with its values, some of them ahead of it.
Key:
HLA-A*02:01 [1] = test: IEDB peptide-MHC binding, purified MHC/competitive/radioactivity; ≥ and ≤ were set here for values at or beyond the usual limits of such assays
HLA-B*15:09 = test: IEDB peptide-MHC binding, purified MHC/direct/fluorescence; filed as Kd, often an IC50 or EC50 that approximates it; ≥ and ≤ were set here for values at or beyond the usual limits of such assays
HLA-B*15:17 [2] = test: as above; settings: source organism: Burkholderia mallei
HLA-B*27:05 = test: as above
HLA-B*39:01 [3] = test: as above; settings: source organism: Burkholderia mallei ATCC 23344
HLA-B*57:01 [4] = test: as above; settings: source organism: Burkholderia mallei
HLA-A*68:02 [5] = test: as above; settings: source organism: Burkholderia mallei
HLA-A*69:01 [6] = test: as above
HLA-A*03:01 = test: as above
HLA-A*31:01 = test: as above; settings: source organism: Burkholderia mallei
HLA-A*02:01 [7] = test: as above
HLA-A*11:01 = test: as above; settings: source organism: Burkholderia mallei
HLA-B*44:02 = test: as above
HLA-A*01:01 = test: as above
HLA-B*40:01 = test: as above
HLA-B*15:01 [8] = test: as above
HLA-B*07:02 = test: as above
HLA-B*08:01 = test: as above
HLA-A*26:01 [9] = test: as above
HLA-B*48:01 = test: as above; settings: source organism: Burkholderia mallei
HLA-B*58:01 = test: as above
HLA-B*18:01 [10] = test: as above
HLA-A*02:03 = test: IEDB peptide-MHC binding, purified MHC/competitive/fluorescence; filed as Kd, often an IC50 or EC50 that approximates it; ≥ and ≤ were set here for values at or beyond the usual limits of such assays; settings: source organism: Human immunodeficiency virus 1
HLA-A*68:02 [11] = test: as above; settings: source organism: Human immunodeficiency virus 1
HLA-C*08:02 = test: IEDB peptide-MHC binding, purified MHC/direct/fluorescence; filed as Kd, often an IC50 or EC50 that approximates it; ≥ and ≤ were set here for values at or beyond the usual limits of such assays
HLA-B*27:03 = test: IEDB peptide-MHC binding, purified MHC/competitive/fluorescence; filed as Kd, often an IC50 or EC50 that approximates it; ≥ and ≤ were set here for values at or beyond the usual limits of such assays
HLA-B*51:01 = test: as above
HLA-B*39:01 [12] = test: as above
HLA-B*57:01 [13] = test: as above
HLA-A*69:01 [14] = test: as above; settings: source organism: Mus musculus
HLA-A*02:01 [15] = test: as above
HLA-B*46:01 [16] = test: as above
HLA-A*26:01 [17] = test: as above
HLA-B*18:01 [18] = test: as above
HLA-A*26:02 = test: IEDB peptide-MHC binding, purified MHC/direct/fluorescence; filed as Kd, often an IC50 or EC50 that approximates it; ≥ and ≤ were set here for values at or beyond the usual limits of such assays; settings: source organism: Influenza A virus(A/swine/Shandong/fZC/2003(H9N2))
HLA-A*24:02 = test: as above; settings: source organism: Influenza A virus (A/quail/Hong Kong/FY298/00(H9N2))
HLA-B*46:01 [19] = test: as above; settings: source organism: Influenza A virus (A/quail/Hong Kong/FY298/00(H9N2))
HLA-B*15:17 [20] = test: IEDB peptide-MHC binding, purified MHC/competitive/fluorescence; filed as Kd, often an IC50 or EC50 that approximates it; ≥ and ≤ were set here for values at or beyond the usual limits of such assays; settings: source organism: Homo sapiens
HLA-B*15:01 [21] = test: as above; settings: source organism: Homo sapiens
[22] = source organism: Burkholderia mallei ATCC 23344
[23] = source organism: Burkholderia mallei
[24] = source organism: Influenza A virus (A/quail/Hong Kong/FY298/00(H9N2))

Sequence: IMDKNIIL
- IC50 (HLA-A*02:01 [1]; source organism: Influenza A virus (A/Puerto Rico/8/1934(H1N1))): 21 µM

Sequence: FEIGNGDAG
- Kd (HLA-B*15:09; [22]): ≥ 20 µM
- Kd (HLA-B*15:17 [2]): ≥ 20 µM
- Kd (HLA-B*27:05; [23]): ≥ 20 µM
- Kd (HLA-B*39:01 [3]): ≥ 20 µM
- Kd (HLA-B*57:01 [4]): ≥ 20 µM
- Kd (HLA-A*68:02 [5]): ≥ 20 µM
- Kd (HLA-A*69:01 [6]; [23]): ≥ 20 µM
- Kd (HLA-A*03:01; [23]): ≥ 20 µM
- Kd (HLA-A*31:01): ≥ 20 µM
- Kd (HLA-A*02:01 [7]; [23]): ≥ 20 µM
- Kd (HLA-A*11:01): ≥ 20 µM
- Kd (HLA-B*44:02; [23]): ≥ 20 µM
- Kd (HLA-A*01:01; [23]): ≥ 20 µM
- Kd (HLA-B*40:01; [23]): ≥ 20 µM
- Kd (HLA-B*15:01 [8]; [23]): ≥ 20 µM
- Kd (HLA-B*07:02; [23]): ≥ 20 µM
- Kd (HLA-B*08:01; [22]): ≥ 20 µM
- Kd (HLA-A*26:01 [9]; [22]): ≥ 20 µM
- Kd (HLA-B*48:01): ≥ 20 µM
- Kd (HLA-B*58:01; [23]): ≥ 20 µM
- Kd (HLA-B*18:01 [10]; [23]): ≥ 20 µM

Sequence: EELKSLYNTI
- Kd (HLA-A*02:03): ≥ 20 µM
- Kd (HLA-A*68:02 [11]): 1.78 µM

- IC50 (HLA-A*02:01 [1]; source organism: Homo sapiens): 0.192 µM
Sequence: ILCGTCLIV

- Kd (HLA-C*08:02; source organism: Mus musculus): ≥ 20 µM
- Kd (HLA-B*27:03; source organism: Mus musculus): ≥ 20 µM
- Kd (HLA-B*51:01; source organism: Mus musculus): ≥ 20 µM
- Kd (HLA-B*39:01 [12]; source organism: Mus musculus): ≥ 20 µM
- Kd (HLA-B*57:01 [13]; source organism: Mus musculus): ≥ 20 µM
- Kd (HLA-A*69:01 [14]): ≥ 20 µM
- Kd (HLA-A*02:01 [15]; source organism: Mus musculus): ≥ 20 µM
- Kd (HLA-B*46:01 [16]; source organism: Mus musculus): ≥ 20 µM
- Kd (HLA-A*26:01 [17]; source organism: Mus musculus): ≥ 20 µM
- Kd (HLA-B*18:01 [18]; source organism: Mus musculus): ≥ 20 µM
Sequence: LVDENQSWY

Sequence: SLSHYFTLV
- IC50 (HLA-A*02:01 [1]; source organism: Trypanosoma cruzi): 0.0016 µM

Sequence: TTAKAMEQM
- Kd (HLA-A*26:02): 0.002 µM
- Kd (HLA-A*26:01 [9]; source organism: Influenza A virus (A/shorebird/Delaware Bay/277/2000(H9N7))): 0.0489 µM

Sequence: ALTLNTMTK
- Kd (HLA-B*15:09; source organism: Influenza A virus(A/swine/Henan/5/2004(H9N2))): ≥ 20 µM
- Kd (HLA-B*27:05; [24]): ≥ 20 µM
- Kd (HLA-A*69:01 [6]; [24]): ≥ 20 µM
- Kd (HLA-A*24:02): ≥ 20 µM
- Kd (HLA-A*03:01; source organism: Influenza A virus (A/Puerto Rico/8/34/Mount Sinai(H1N1))): 0.724 µM
- Kd (HLA-A*02:01 [7]; [24]): ≥ 20 µM
- Kd (HLA-B*44:02; [24]): ≥ 20 µM
- Kd (HLA-A*01:01; [24]): ≥ 20 µM
- Kd (HLA-B*40:01; [24]): ≥ 20 µM
- Kd (HLA-B*15:01 [8]; [24]): ≥ 20 µM
- Kd (HLA-B*07:02; [24]): ≥ 20 µM
- Kd (HLA-B*08:01; [24]): ≥ 20 µM
- Kd (HLA-B*46:01 [19]): ≥ 20 µM
- Kd (HLA-B*58:01; [24]): ≥ 20 µM
- Kd (HLA-B*18:01 [10]; [24]): ≥ 20 µM

- IC50 (HLA-A*02:01 [1]; source organism: Homo sapiens): 1.98 µM
Sequence: RLPRIFCSC

- Kd (HLA-C*08:02; source organism: Homo sapiens): 0.254 µM
- Kd (HLA-A*01:01; source organism: Homo sapiens): 0.002 µM
- Kd (HLA-B*15:17 [20]): ≥ 20 µM
- Kd (HLA-B*27:03; source organism: Homo sapiens): ≥ 20 µM
- Kd (HLA-B*51:01; source organism: Homo sapiens): ≥ 20 µM
- Kd (HLA-B*39:01 [12]; source organism: Homo sapiens): ≥ 20 µM
- Kd (HLA-B*57:01 [13]; source organism: Homo sapiens): ≥ 20 µM
- Kd (HLA-A*02:01 [15]; source organism: Homo sapiens): ≥ 20 µM
- Kd (HLA-B*15:01 [21]): ≥ 20 µM
- Kd (HLA-B*46:01 [16]; source organism: Homo sapiens): ≥ 20 µM
- Kd (HLA-A*26:01 [17]; source organism: Homo sapiens): ≥ 20 µM
- Kd (HLA-B*18:01 [18]; source organism: Homo sapiens): ≥ 20 µM
Sequence: WTDLFDNKV

From the Immune Epitope Database (IEDB)
